Experimental data from publication PMC12046042 (2025).

How the values were obtained:
Experiment in all cases: SPR
[1] = target: T1, FcγRI (CD64) extracellular domain (UniProt P12314 16-292)
T1 chain: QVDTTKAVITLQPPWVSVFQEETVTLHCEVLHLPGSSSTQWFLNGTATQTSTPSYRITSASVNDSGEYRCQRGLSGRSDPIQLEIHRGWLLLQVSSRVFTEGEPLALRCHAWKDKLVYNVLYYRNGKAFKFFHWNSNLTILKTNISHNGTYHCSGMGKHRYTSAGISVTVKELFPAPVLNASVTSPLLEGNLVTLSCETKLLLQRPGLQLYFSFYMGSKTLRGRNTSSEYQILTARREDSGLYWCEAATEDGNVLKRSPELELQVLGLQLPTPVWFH

FcγRIIb = target: FcγRIIb
FcγRIIa-131R = target: FcγRIIa-131R
FcγRIIa-131H = target: FcγRIIa-131H
FcγRIIIa-158V = target: FcγRIIIa-158V
FcγRIIIa-158F = target: FcγRIIIa-158F

B1: LY3454738 IgG4 S228P (ucenprubart) (antibody)
chain 1: QVQLVQSGAEVKKPGASVKVSCKASGFSFSSGYYMAWVRQAPGQGLEWMGLIGVGSGSLWYAQKFQGRVTMTRDTSTSTVYMELSSLRSEDTAVYYCARHFALSDPFNLWGQGTLVTVSS
chain 2: EIVLTQSPDFQSVTPKEKVTITCQASESIDSYLLWYQQKPDQSPKLLIKQASTLASGVPSRFSGSGSGTDFTLTINSLEAEDAATYYCQNYYDISSNDFGGGTKVEIK
Kd [1]: 0.474 nM | Kd (FcγRIIb): 1900 nM | Kd (FcγRIIa-131R): 1800 nM | Kd (FcγRIIa-131H): 4400 nM | Kd (FcγRIIIa-158V): 5000 nM | Kd (FcγRIIIa-158F): > 10000 nM
